Reference: US20230416360A1

Tests used:
[1] = target: human CD22 (full length, on cells) (human) (UniProt P20273); assay: FACS, CHO-K1-human CD22 1D9
[2] = target: human CD22 (full length, on cells) (human) (UniProt P20273); assay: FACS, CHO-K1-human CD22 2C4
[3] = target: human CD22 (full length, on cells) (human) (UniProt P20273); assay: FACS, Raji cells
[4] = target: human CD22-ECD-His (human) (UniProt P20273); assay: ELISA, coated hCD22-ECD-His, antibody 10 nM
[5] = target: human CD22-ECD-His (human) (UniProt P20273); assay: ELISA, coated hCD22-ECD-His, antibody 0.01 nM
[6] = target: human CD22-ECD-His (human) (UniProt P20273); assay: ELISA, coated hCD22-ECD-His, antibody 0.001 nM
[7] = target: human CD22-ECD-His (human) (UniProt P20273); assay: ELISA, coated hCD22-ECD-His, antibody 0.0001 nM
[8] = target: cynomolgus monkey CD22 on peripheral blood B cells (cynomolgus monkey (Macaca fascicularis)); assay: FACS, cynomolgus PBMC, CD20+ B cells, antibody 100 nM
[9] = target: cynomolgus monkey CD22 on peripheral blood B cells (cynomolgus monkey (Macaca fascicularis)); assay: FACS, cynomolgus PBMC, CD20+ B cells, antibody 1 nM
[10] = target: human CD22-ECD-His (human) (UniProt P20273); assay: ELISA, coated hCD22-ECD-His, antibody 100 nM
[11] = target: human CD22 (full length, on cells) (human) (UniProt P20273); assay: FACS, CHO-K1-human CD22 1G5
[12] = target: human CD22-ECD-His (human) (UniProt P20273); assay: ELISA, coated hCD22-ECD-His, antibody 0.00001 nM
[13] = target: human CD22-ECD-His (human) (UniProt P20273); assay: ELISA, coated hCD22-ECD-His, antibody 0.10 nM
[14] = target: cynomolgus monkey CD22 on peripheral blood B cells (cynomolgus monkey (Macaca fascicularis)); assay: FACS, cynomolgus PBMC, CD20+ B cells, antibody 10 nM
[15] = target: human CD22 (full length, on cells) (human) (UniProt P20273); assay: FACS, CHO-K1-human CD22 2C4 cells

Substance “anti-hel-hIgG1 (negative control antibody against chicken egg lysozyme)” has a Cell mean fluorescence intensity [1] of 66, a Cell mean fluorescence intensity [2] of 66 and a Cell mean fluorescence density [3] of 158. For the same substance, the Max MFI [3] was 374, the OD450 [4] was 0.08 and the OD450 [5] was 0.06. The OD450 [6] was 0.06, the OD450 [7] was 0.06 and the Proportion of VHH-Fc antibody positive cells to B cells (%) [8] was 3%. The Proportion of VHH-Fc antibody positive cells to B cells (%) [9] was 0%, the OD450 [10] was 0.15 and the Cell mean fluorescence intensity [11] was 66. It also gave an OD450 [12] of 0.05, an OD450 [13] of 0.06 and a Proportion of VHH-Fc antibody positive cells to B cells (%) [14] of 0%. For the same substance, the Max MFI [15] was 340.
